We go through two molecules from patent publication US20230251254A1, “METHOD FOR EVALUATING INTERACTION BETWEEN IMMOBILIZED SUBSTANCE IMMOBILIZED DIRECTLY OR INDIRECTLY ON SUBSTRATE AND PROXIMITY-DEPENDENT MODIFYING ENZYMELABELED SUBSTANCE TO BE ANALYZED” (CELLFREE SCIENCES CO.,LTD., priority 2020, published 2023).

Test [1] addresses T1, CRBN and SALL4 (Homo sapiens, UniProt Q96SW2). The settings on record: stated as known; cited from earlier work.
The target of test [2] is T2, CRBN and IKZF1 (Homo sapiens, UniProt Q96SW2). The conditions noted are these: stated as known; cited from earlier work.
T2 sequence (Q96SW2 whole entry, the tested form may be a part): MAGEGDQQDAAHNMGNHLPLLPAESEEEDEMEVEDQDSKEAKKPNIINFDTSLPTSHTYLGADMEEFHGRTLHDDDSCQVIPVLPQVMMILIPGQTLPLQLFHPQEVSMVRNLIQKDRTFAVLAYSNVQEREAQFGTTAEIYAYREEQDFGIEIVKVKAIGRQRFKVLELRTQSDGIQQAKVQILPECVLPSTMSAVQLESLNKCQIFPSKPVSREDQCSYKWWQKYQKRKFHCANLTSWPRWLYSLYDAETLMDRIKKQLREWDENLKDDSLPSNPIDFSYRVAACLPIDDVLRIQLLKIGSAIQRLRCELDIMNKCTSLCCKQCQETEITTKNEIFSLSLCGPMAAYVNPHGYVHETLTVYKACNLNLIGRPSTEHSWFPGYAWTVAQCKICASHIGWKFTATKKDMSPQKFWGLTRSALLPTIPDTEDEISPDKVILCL
T2 sequence (as listed by the source): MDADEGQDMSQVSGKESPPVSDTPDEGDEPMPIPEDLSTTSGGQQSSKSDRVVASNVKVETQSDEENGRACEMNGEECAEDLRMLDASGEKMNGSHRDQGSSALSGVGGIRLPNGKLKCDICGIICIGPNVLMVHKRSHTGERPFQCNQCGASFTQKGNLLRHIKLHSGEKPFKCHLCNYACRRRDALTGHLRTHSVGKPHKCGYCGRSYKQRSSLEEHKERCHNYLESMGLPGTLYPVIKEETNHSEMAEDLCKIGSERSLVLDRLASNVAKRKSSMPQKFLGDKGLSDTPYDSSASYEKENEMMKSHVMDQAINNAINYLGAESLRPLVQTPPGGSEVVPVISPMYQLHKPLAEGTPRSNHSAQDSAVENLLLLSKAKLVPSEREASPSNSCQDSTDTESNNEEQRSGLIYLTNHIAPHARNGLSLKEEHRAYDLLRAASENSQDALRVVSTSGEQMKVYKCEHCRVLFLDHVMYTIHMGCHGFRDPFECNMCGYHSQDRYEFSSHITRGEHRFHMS
For test [3], the target named is T2, CRBN and IKZF1. The settings on record: compound added to reaction buffer; AirID-fused CRBN. Here is the method: (§1) In this Example, an interaction between proteins known to bind to each other, CRBN (SEQ ID NO: 7) and IKZF1 (SEQ ID NO: 6) or SALL4 (SEQ ID NO: 9), was analyzed. […] In view of this, the compound (thalidomide derivative) was added to a buffer to be used for a reaction to analyze how CRBN interacted with IKZF1 or SALL4 in a compound-dependent (binding recruiter) manner. The flow of this Example is illustrated in FIG. 3.
(§2) As a substance to be analyzed (protein), template DNA in which CRBN was fused to AirID and template DNA in which a mutant CRBN (SEQ ID NO: 8) having a mutation introduced into its binding site for the thalidomide derivative was fused to AirID were synthesized. As an immobilized substance (protein), template DNA was synthesized by fusing IKZF1, SALL4, or Venus (control) for comparison to a FLAG™ tag protein and a GST protein.
(§3) The synthesized template DNAs were used to synthesize AirID-fused substances to be analyzed and FLAG™-GST-fused immobilized substances through use of a wheat cell-free expression system.
(§4) The FLAG™-GST-fused immobilized substance (IKZF1, SALL4, or Venus) was bound to glutathione magnetic beads, followed by purification. The magnetic beads after the purification were dispensed and arranged on the wells of the plate, and immobilized by the magnetic force of the magnet plate.
(§5) The AirID-fused substance to be analyzed (CRBN or mutant CRBN) diluted with a reaction buffer containing biotin and ATP was allowed to react with the FLAG™-GST-fused immobilized substance (IKZF1, SALL4, or Venus) on the magnetic beads to perform biotin labeling of the FLAG™-GST-fused immobilized substance.
(§6) In order to remove the AirID-fused substance to be analyzed that was free in the reaction buffer or adsorbed onto the magnetic beads, the reaction buffer was removed and then washing was performed a plurality of times with a washing buffer.

The target in test [4] is CRBN and SALL4 (Homo sapiens, UniProt Q96SW2, W386A/Y384A). The settings on record: mutant CRBN having a mutation in its binding site for the compound. The method, then:
as §1, §2, §3, §4, §5, §6

Test [5] addresses CRBN and IKZF1 (Homo sapiens, UniProt Q96SW2, W386A/Y384A). The conditions noted are these: mutant CRBN having a mutation in its binding site for the compound. The method, then: as §1, §2, §3, §4, §5, §6
Test [6] deals with T1, CRBN and SALL4. The settings on record: compound added to reaction buffer; AirID-fused CRBN. The method, then:
as §1, §2, §3, §4, §5, §6

A further test addresses T3, RelA (Homo sapiens, UniProt Q04206).
T3 construct: made in house; host or cells: wheat cell-free expression system
In words: AirID proximity-dependent biotin labeling on non-denatured protein array, Iκβα and RelA (Example 2). In kind it is binding. The settings on record: AirID-fused Iκβα; FLAG-GST-RelA on magnetic beads; HRP-labeled streptavidin. The source says:
As a substance to be analyzed, template DNA in which TP53 (SEQ ID NO: 4) or Iκβα (SEQ ID NO: 5) was fused to AirID (SEQ ID NO: 3) was synthesized. As an immobilized substance (target protein), template DNA in which MDM2 (SEQ ID NO: 10), RelA (SEQ ID NO: 11), or any one of 10 kinds of proteins (controls) for comparison was fused to a FLAG™ tag protein and a GST protein was synthesized.
Thus, a non-denatured protein array was produced.

For test [7], the target named is T4, FLAG-GST-fused RelA (UniProt Q04206 1-551).
T4 construct: Immobilized on glutathione magnetic beads on the non-denatured protein array; Order of the parts follows the printed name FLAG-GST; also called FLAG-GST-fused immobilized substance (RelA); not shown: FLAG tag protein; GST protein (glutathione S-transferase tag)
T4 sequence (Q04206 other isoform, or with tags, fused parts or gaps): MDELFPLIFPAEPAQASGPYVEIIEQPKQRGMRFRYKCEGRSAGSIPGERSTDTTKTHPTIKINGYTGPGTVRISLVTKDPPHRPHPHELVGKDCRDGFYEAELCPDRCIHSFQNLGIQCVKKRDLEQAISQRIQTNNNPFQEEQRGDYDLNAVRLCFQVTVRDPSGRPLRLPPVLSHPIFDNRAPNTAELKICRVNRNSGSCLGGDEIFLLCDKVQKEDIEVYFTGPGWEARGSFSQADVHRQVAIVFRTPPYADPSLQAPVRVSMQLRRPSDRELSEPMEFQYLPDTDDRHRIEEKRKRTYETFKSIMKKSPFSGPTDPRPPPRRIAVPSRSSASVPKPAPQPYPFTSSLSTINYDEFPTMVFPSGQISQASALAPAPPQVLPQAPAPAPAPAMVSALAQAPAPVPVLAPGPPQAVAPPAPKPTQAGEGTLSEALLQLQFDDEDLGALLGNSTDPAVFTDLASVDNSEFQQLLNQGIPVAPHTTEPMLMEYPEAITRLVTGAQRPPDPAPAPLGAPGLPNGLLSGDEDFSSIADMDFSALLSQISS
Nature of the test: proximity-biotinylation bead array, streptavidin-HRP luminescence; labeling 26°C 30 min; exposure 10 min.

Test [8] deals with T5, FLAG-GST-fused MDM2 (UniProt P23804 1-489).
T5 construct: Immobilized on glutathione magnetic beads on the non-denatured protein array; Order of the parts follows the printed name FLAG-GST; also called FLAG-GST-fused immobilized substance (MDM2); not shown: FLAG tag protein; GST protein (glutathione S-transferase tag)
T5 sequence (P23804 whole entry, the tested form may be a part): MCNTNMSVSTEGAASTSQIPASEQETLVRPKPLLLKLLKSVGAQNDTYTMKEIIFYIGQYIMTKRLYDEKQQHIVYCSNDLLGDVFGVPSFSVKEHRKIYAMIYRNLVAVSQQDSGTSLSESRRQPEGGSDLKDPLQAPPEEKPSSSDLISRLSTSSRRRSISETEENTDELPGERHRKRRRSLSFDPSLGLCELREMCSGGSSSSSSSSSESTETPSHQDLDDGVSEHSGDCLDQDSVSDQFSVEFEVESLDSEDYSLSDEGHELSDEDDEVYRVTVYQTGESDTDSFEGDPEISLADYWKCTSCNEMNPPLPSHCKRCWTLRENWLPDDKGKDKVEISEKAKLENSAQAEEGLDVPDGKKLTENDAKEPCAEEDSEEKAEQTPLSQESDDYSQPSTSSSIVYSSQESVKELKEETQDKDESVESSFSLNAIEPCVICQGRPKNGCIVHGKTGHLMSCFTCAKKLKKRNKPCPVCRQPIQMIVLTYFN
The test is described as above.

The target in test [9] is T4, FLAG-GST-fused RelA. In words: proximity-biotinylation bead array, streptavidin-HRP luminescence; labeling 26°C 3 h; exposure 10 min.
Test [10] deals with T5, FLAG-GST-fused MDM2. Described as above.
For test [11], the target named is T4, FLAG-GST-fused RelA. In words: proximity-biotinylation bead array, streptavidin-HRP luminescence; labeling 26°C 1 h; exposure 10 min.
Test [12] concerns the target T5, FLAG-GST-fused MDM2. The test is described as above.
The target in test [13] is T5, FLAG-GST-fused MDM2. In words: proximity biotinylation by AirID fusion on bead protein array, streptavidin-HRP luminescence image.
Procedure: The washing buffer was removed, and an HRP-labeled streptavidin solution diluted with the reaction buffer was added and allowed to react with the FLAG™-GST-fused immobilized substance on the magnetic beads. In order to remove free streptavidin, the reaction buffer was removed and then washing was performed a plurality of times with a washing buffer. After the removal of the washing buffer, a chemiluminescence reagent was added and subjected to a reaction. The resultant luminescence was detected with LAS4000 (manufactured by GE Healthcare) to provide measurement images.

T1 sequence (as listed by the source): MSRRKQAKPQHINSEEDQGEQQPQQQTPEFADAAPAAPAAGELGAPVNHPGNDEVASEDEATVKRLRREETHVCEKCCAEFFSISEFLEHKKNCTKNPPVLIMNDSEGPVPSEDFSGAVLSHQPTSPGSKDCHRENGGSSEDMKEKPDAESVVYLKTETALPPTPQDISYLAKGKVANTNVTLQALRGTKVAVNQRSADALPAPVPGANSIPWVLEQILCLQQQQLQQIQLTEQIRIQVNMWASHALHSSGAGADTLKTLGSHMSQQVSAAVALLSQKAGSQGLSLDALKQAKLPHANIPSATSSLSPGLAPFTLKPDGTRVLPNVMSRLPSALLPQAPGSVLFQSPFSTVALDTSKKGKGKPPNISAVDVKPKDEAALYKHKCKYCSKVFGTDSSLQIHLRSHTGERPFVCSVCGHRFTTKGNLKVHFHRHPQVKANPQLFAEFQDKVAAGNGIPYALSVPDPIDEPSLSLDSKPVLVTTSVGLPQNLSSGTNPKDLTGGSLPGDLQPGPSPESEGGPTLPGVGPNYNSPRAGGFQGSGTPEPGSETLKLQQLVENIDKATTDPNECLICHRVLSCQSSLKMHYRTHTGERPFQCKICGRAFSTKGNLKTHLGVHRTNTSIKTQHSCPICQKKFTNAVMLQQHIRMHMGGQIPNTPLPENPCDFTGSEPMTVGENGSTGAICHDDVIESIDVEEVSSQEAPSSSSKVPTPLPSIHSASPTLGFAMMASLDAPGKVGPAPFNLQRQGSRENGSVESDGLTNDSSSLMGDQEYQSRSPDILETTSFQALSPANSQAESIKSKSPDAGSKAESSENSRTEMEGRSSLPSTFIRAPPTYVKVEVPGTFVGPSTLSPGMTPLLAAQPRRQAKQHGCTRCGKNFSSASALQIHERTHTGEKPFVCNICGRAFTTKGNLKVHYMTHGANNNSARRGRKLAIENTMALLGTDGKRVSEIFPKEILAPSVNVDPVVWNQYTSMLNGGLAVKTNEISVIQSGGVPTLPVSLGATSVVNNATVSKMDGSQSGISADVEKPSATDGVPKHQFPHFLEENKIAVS
T1 sequence (Q96SW2 whole entry): as the sequence (Q96SW2 whole entry, the tested form may be a part) above
Sequence of CRBN and IKZF1 (Homo sapiens, UniProt Q96SW2, W386A/Y384A) (Q96SW2 whole entry Y384A/W386A, the tested form may be a part): as the sequence (Q96SW2 whole entry, the tested form may be a part) above, with Y384A, W386A counted along it
Sequence of CRBN and SALL4 (Homo sapiens, UniProt Q96SW2, W386A/Y384A) (Q96SW2 whole entry Y384A/W386A): as the sequence (Q96SW2 whole entry, the tested form may be a part) above, with Y384A, W386A counted along it
T3 sequence (Q04206 1-548 isoform Q04206-4): as the sequence (Q04206 other isoform, or with tags, fused parts or gaps) above

As to `Nc1cccc2c1C(=O)N(C1CCC(=O)NC1=O)C2=O` (centres unmarked) [Pomalidomide], the “effect on binding of CRBN and SALL4” value on CRBN and SALL4 [1] is “enhance their binding”. Moreover, at CRBN and IKZF1 [2], the “effect on binding of CRBN and IKZF1” value is “enhance their binding”. The “luminescence intensity of CRBN and IKZF1” value at CRBN and IKZF1 [3] is listed as “particularly increased”. In addition, the “luminescence intensity of mutant CRBN and SALL4” value on CRBN and SALL4 [4] is “hardly any increase”. Also, the “luminescence intensity of mutant CRBN and IKZF1” value on CRBN and IKZF1 [5] is on record as “hardly any increase”. Further, the “luminescence intensity of CRBN and SALL4” value at CRBN and SALL4 [6] is listed as “particularly increased”.

B1: AirID-fused Iκβα (other)
chain: MKDNTVPLTLISILADGEFHSGEQLGEQLGMSRAAINKHIKTLRDWGVDVFRVQGKGYCLPEPIQLLDEEKIRQQLDEGSVTVLPVIDSTNQYLLDRLDELTSGDVCIAEYQQAGRGSRGRKWFSPFGANLYLSMYWRLEQGPAAAMGLSLVIGIVMAETLQKLGADGVRVKWPNDLYLNDRKLAGILVEMTGKTGDAAHIVIGAGINLSMREPETDEVDQSWINLQEAGITIDRNQLAARLIKDLRSALRQFEQQGLAPFLSRWEALDNFINRPVKLIIGDREIHGIARGINEQGALLLEQDGVIKPWIGGEISLRSAMFQAAERPQEWAMEGPRDGLKKERLLDDRHDSGLDSMKDEEYEQMVKELQEIRLEPQEVPRSSEPWKQQLTEDGDSFLHLAIIHEEKALTMEVIRQVKGDLAFLNFQNNLQQTPLHLAVITNQPEIAEALLGAGCDPELRDFRGNTPLHLACEQGCLASVGVLTQSCTTPHLHSILKATNYNGHTCLHLASIHGYLGIVELLVSLGADVNAQEPCNGRTALHLAVDLQNPDLVSLLLKCGADVNRVTYQGYSPYQLTWGRPSTRIQQQLGQLTLENLQMLPESEDEESYDTESEFTEFTEDELPYDDCVFGGQRLTL
notes: Fusion made in a wheat cell-free system; also called AirID-fused substance to be analyzed (Iκβα)
With B1, in the test with RelA, the “luminescence (biotin detection) between Iκβα and RelA” value is listed as “recognized”. Further, the signal value with FLAG-GST-fused RelA [7] is 7940; with FLAG-GST-fused MDM2 [8] it was 370; with FLAG-GST-fused RelA [9] it was 48000; with FLAG-GST-fused MDM2 [10] it was 520; in the test with FLAG-GST-fused RelA [11], 28000; in the test with FLAG-GST-fused MDM2 [12] it was 690. Further, in the test with FLAG-GST-fused MDM2 [13], the binding result is recorded as “no binding”.
